Experiments:
Settings in all cases: EMSA with 0.75 ug rArcR-ACME and 61.2 pmol biotinylated probe; buffer, salt, pH and temperature not given in the material
[1] = molecular target: T1, rArcR-ACME (Staphylococcus aureus USA300_FPR3757) (UniProt E9KNS2); experiment: competition
T1 sequence: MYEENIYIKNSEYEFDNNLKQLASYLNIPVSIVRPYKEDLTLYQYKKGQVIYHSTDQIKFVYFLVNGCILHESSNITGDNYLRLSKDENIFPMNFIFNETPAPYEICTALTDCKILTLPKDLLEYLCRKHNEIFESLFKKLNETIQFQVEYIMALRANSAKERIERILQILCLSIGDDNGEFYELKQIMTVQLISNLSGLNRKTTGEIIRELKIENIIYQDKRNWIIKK

[2] = molecular target: T1, rArcR-ACME (Staphylococcus aureus USA300_FPR3757); experiment: EMSA
[3] = molecular target: T1, rArcR-ACME (Staphylococcus aureus USA300_FPR3757); experiment: UV cross-linking

| Sequence | binding [1] | binding [2] | binding [3] |
| --- | --- | --- | --- |
| CAAATGATCACAGCATTTGGTACAGGAATCGGTGGCGACTTTGATCTAGCGAAAGCAAGATATCACAAAATCGTCATTATGACTGATGCCG (double strand) [gyrB fragment, non-specific competitor, 91 bp] | no binding | – | – |
| GTACAAAATACATATTCATACAAAATTTTGCATTGAATAAATCTATATATGTGAAAACCCTCCCTAAACAATTGTGAATTAAATCACACGATGTTTTTTGAAAGCGTTTTATAATGTGAATGT (double strand) [arcACME promoter fragment, unlabelled specific competitor] | binds | – | – |
| GTACAAAATACATATTCATACAAAATTTTGCATTGAATAAATCTATATATGTGAAAACCCTCCCTAAACAATTGTGAATTAAATCACACGATGTTTTTTGAAAGCGTTTTATAATGTGAATGT (double strand) [arcACME promoter probe, 123 bp] | – | binds | binds |

Reference: paper PMC5452487
